Broadly, the Kd is the free concentration of one partner at which half of the binding sites on the other are occupied at equilibrium, for simple one-to-one binding. The term koff denotes the first-order rate constant of dissociation. For orientation: kon means the second-order rate constant of association.

Assay [1] deals with T1, human CLL-1 on cells (endogenous on HL-60, EOL-1 and other AML cell lines and CD14+ monocytes); recombinant on … (human, UniProt Q5QGZ9 1-265).
T1 construct: also called 293AD/huCLL-1; tumor-derived CLL-1
T1 sequence: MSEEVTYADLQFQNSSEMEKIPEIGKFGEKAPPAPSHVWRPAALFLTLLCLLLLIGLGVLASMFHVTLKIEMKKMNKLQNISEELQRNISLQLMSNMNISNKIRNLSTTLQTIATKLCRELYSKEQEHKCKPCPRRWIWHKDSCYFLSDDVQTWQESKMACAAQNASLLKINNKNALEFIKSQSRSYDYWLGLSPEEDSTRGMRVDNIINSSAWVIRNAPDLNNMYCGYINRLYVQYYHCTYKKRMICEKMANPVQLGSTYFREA
Briefly: Scatchard (125I-antibody competition), HL-60 cells. The procedure: (§1) Anti-CLL-1 antibodies were [I¹²⁵] labeled using the indirect lodogen method. […] Competition assay mixtures of 50 μL volume containing a fixed concentration of [1¹²⁵] labeled antibody and decreasing concentrations of serially diluted, unlabeled antibody were placed into 96-well plates. HEK293AD cells stably expressing recombinant hu or cynoCLL-1 or HL-60 tumor cells expressing endogenous CLL-1 were cultured in growth media at 37° C. in 5% CO₂. Cells were detached from the flask using Sigma Cell Dissociation Solution and were washed with binding buffer, which consisted of Dulbecco's Modified Eagle Medium (DMEM) with 1% bovine serum albumin (BSA), […] and 0.1% sodium azide. The washed cells were added to the 96 well plates at a density of 100,000 cells in 0.2 mL of binding buffer. […] The final concentration of the unlabeled antibody in the competition assay ranged from 1000 nM through ten 2-fold dilution steps to a 0 nM buffer-only assay. Competition assays were carried out in triplicate. Competition assays were incubated for 2 hours at room temperature. […] The filters were counted on a Wallac Wizard 1470 gamma counter (PerkinElmer Life and Analytical Sciences Inc.; Wellesley, Mass.). The binding data was evaluated using NewLigand software (Genentech), which uses the fitting algorithm of Munson and Robard to determine the binding affinity of the antibody (Munson and Robard 1980).

In assay [2] the target is T2, recombinant cynomolgus CLL-1 extracellular domain (ECD, amino acids 65-265) fused to an N-terminal Flag (cynomolgus monkey).
T2 construct: Construct stated for the immunogen; also called CynoCLL-1 Flag; cynoCLL-1
T2 chain: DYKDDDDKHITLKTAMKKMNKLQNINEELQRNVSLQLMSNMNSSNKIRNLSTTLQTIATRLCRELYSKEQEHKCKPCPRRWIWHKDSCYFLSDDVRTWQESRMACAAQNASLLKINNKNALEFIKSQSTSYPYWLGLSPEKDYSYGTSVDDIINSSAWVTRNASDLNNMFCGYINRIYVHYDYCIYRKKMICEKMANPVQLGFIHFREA
Briefly: SPR (Biacore), chimeric IgG captured by anti-human IgG, CLL-1 as analyte. The procedure:
(§2) The chimeric anti-CLL-1 human IgG were captured by mouse anti-human IgG coated on the CM5 sensor chip. […] Association rates (kon) and dissociation rates (koff) were calculated using a simple one-to-one Langmuir binding model. The equilibrium dissociation constant (KD) was calculated as the ratio koff/kon.
Background: In SPR one partner is held on a chip, and binding of the other changes the refractive index at the surface.

The target of assay [3] is T3, recombinant human CLL-1 extracellular domain (ECD, amino acids 65-265) fused to an N-terminal Flag (human, UniProt Q5QGZ9 65-265).
T3 construct: The construct and the K244Q SNP are stated for the immunogen; they are not written as a piece; also called huCLL-1-Flag; huCLL-1
T3 chain: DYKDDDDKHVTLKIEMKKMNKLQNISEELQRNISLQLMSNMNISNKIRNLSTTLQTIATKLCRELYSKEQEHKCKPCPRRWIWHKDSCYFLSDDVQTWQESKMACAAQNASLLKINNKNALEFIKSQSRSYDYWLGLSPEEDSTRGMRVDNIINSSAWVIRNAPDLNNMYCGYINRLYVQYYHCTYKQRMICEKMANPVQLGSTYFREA
Described as above. The procedure:
as §2

For assay [4], the target named is T4, cynomolgus CLL-1 on cells (recombinant on HEK293AD cells) (cynomolgus monkey).
T4 construct: also called 293AD/cynoCLL-1; 293AD/cynoCLL1
T4 chain: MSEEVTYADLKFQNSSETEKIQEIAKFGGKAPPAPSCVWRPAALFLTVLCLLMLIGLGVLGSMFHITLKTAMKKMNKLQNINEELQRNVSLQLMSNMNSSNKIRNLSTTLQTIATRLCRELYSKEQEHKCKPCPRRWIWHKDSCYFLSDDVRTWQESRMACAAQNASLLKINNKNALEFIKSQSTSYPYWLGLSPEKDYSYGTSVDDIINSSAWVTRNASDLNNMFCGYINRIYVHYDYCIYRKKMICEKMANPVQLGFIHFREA
Briefly: Scatchard (125I-antibody competition), 293AD/cynoCLL-1 cells. The procedure: as §1

The target in assay [5] is T3, recombinant human CLL-1 extracellular …. Briefly: SPR (Biacore T200), IgG captured by anti-human Fc, human CLL-1 as analyte. The protocol: The binding affinity of the antibodies in this section was determined by BIAcore™ T200 Format. Briefly, BIAcore™ research grade CM5 chips were activated with 1-ethyl-3-(3-dimethylaminopropyl) carbodiimide (EDC) and N-hydroxysuccinimide (NHS) reagents according to the supplier's instructions. Goat anti-human Fc IgGs were coupled to the chips to achieve approximately 10,000 response units (RU) in each flow cell. Unreacted coupling groups were blocked with 1M ethanolamine. For kinetics measurements, antibodies were captured to achieve approximately 300 RU. Three-fold serial dilutions of human CLL-1 was injected in HBS-P buffer (0.01M HEPES pH7.4, 0.15M NaCl, 0.005% surfactant P20) at 25° C. with a flow rate of 30 μl/min. Association rates (kon) and dissociation rates (koff) were calculated using a 1:1 Langmuir binding model (BIAcore™ T200 Evaluation Software version 2.0). The equilibrium dissociation constant (Kd) was calculated as the ratio koff/kon.

Assay [6] concerns the target T1, human CLL-1 on cells (endogenous on …). Put plainly: Scatchard (125I-antibody competition), 293AD/huCLL-1 cells. The protocol:
as §1

Assay [7] addresses T5, hCD3ε (human, UniProt P07766 23-126).
T5 construct: Also used for the value printed only as 'hCD3 (0.05 nM'); also called human CD3ε polypeptide
Put plainly: SPR (Biacore); target printed only as hCD3; format not stated, not the Fab measurement.

Assay [8] deals with T5, hCD3ε. Briefly: SPR (Biacore), Fab.
Assay [9] has as its target T5, hCD3ε. Put plainly: SPR (Biacore), Fab; Fab.

T5 sequence (P07766 23-126): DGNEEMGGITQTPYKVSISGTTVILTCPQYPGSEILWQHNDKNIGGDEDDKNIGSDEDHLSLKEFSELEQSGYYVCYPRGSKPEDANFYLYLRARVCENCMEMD

B1: ch6E7 (antibody, V domains shown)
VH: QVQLQQSGPELVKPGASVKISCKASGYSFTDYYMHWVKQSHIKSLEWIGRINPYNGAAFYSQNFKDKASLTVDKSSSTAYMELHSLTSEDSAVYYCAIERGADLEGYAMDYWGQGTSVTVSS
VL: DIVLTQSPSSLIVSLGQRATISCRASQSVSTSSYNYMHWYQQKPGQPPKLLLKYASNLESGVPARFSGSGSGTDFTLNIHPVEEEDTATYYCQHSWEIPLTFGAGTKLEIK
notes: chimeric version of m6E7, human IgG; also called chimeric 6E7; Chimeric 6E7
In the case of B1, the Kd is 0.65 nM in assay [1]; 1.1 nM in assay [2]; 0.9 nM in assay [3]; 1 nM in assay [4]; 0.959 nM in [5]; 0.8 nM in assay [6]. The koff in assay [2] was determined as 0.00046 s⁻¹; in assay [3], 0.00044 s⁻¹. Moreover, the results for the kon in [2] and in assay [3] were 400000 M⁻¹ s⁻¹ and 460000 M⁻¹ s⁻¹, respectively.

B2: 38E4v11 (antibody, V domains shown)
VH: EVQLVQSGAEVKKPGASVKVSCKASGFTFTSYYIHWVRQAPGQGLEWIGWIYPENDNTKYNEKFKDRVTITADTSTSTAYLELSSLRSEDTAVYYCARDGYSRYYFDYWGQGTLVTVSS
VL: DIVMTQSPDSLAVSLGERATINCKSSQSLLNSRTRKNYLAWYQQKPGQSPKLLIYWTSTRKSGVPDRFSGSGSGTDFTLTISSLQAEDVAVYYCTQSFILRTFGQGTKVEIK
notes: also called h38E4v11
Molecule B2 displayed a Kd with hCD3ε [7] of 0.05 nM.

B3: 38E4v11 Fab (Fab, V domains shown)
VH: B2 VH
VL: B2 VL
notes: Fab; also called 38E4v11 (Fab Biacore measurements)
In the assay with hCD3ε [8], B3 yielded a Kd of 0.032 nM and a koff of 0.0016 s⁻¹. Further, in the assay with hCD3ε [9], the kon came to 5e+07 M⁻¹ s⁻¹.

B4: ch21C9 (antibody, V domains shown)
VH: EVQLQQSGPELVKPGASVKMSCKASGYTFTDYYLDWVKQSHGESFEWIGRVNPYNGGTIYNQKFKGKATLTVDKSSSTAYMDLNSLTSEDSAVYYCARDHYRYDPLLDYWGQGTTLTVSS
VL: DIQMTQSHKFMSTSVGDRVSITCKASQDVSTAVAWFQQKPGQSPKLLIYSPSYRYTGVPDRFTGSGSGTDFTFTISSVQAEDLAVYYCQQLYSTPYTFGGGTKLEIK
notes: chimeric version of m21C9, human IgG; also called chimeric 21C9; Chimeric 21C9
On to B4, for which the Kd in [1] was found to be 0.45 nM; in [2] it was 7.1 nM; in assay [3], 9.7 nM; in assay [4], 1.2 nM; in assay [5], 8.62 nM; in [6], 0.59 nM. For the same molecule, the koff worked out at 0.0012 s⁻¹ in assay [2] and 0.0024 s⁻¹ in assay [3]. Further, the kon in [2] came to 160000 M⁻¹ s⁻¹; in [3], 250000 M⁻¹ s⁻¹.

These data come from patent publication US20200148774A1 (Genentech, published 2020).
